# B1: MAb S3H3 (antibody, V domains shown)
# VH: QVQLQQPGAELVRPGASVKLSCKASGYSFTRFWMNWVKQRPGQGLEWIGMIHPSDSETRLNQKFKDKATLTVDKSSTTAYMQLSSPTSEDSAVYYCARKDYDYDAWFAYWGQGTLVTVSA
# VL: DIVLTQSPASLAVSLGQRATISCRASKSVSASVYSYMHWYQQKPGQPPKLLIYLASSLESGVPARFSGSGSGTDFTLNIHPVEEEDAATYYCHHSRELPPAFGGGTKLEIK
# Legend:
# [1] = molecular target: SARS-CoV-2 RBD protein (wild type) (SARS-CoV-2, UniProt P0DTC2); assay: ELISA; conditions: both partners purified
# SARS-CoV-2 NTD protein = SARS-CoV-2 NTD protein (SARS-CoV-2 Wuhan-Hu-1, UniProt P0DTC2); assay: ELISA; conditions: both partners purified
binder,measurement,setting,value
B1,binding result,[1],no binding (tested: 100 ng/well)
same,binding result,SARS-CoV-2 NTD protein,no binding (tested: 100 ng/well)
